Source: PMC5170609 (Molecular Biology of the Cell, 2016)

What was measured:
Assay in all cases: ELISA
[1] = molecular target: wild-type full-length desmin (recombinant) (UniProt P17661 1-470)
[2] = molecular target: desmin T453I (recombinant, desminopathy-linked mutant) (UniProt P17661 1-470, T453I)
[3] = molecular target: desmin E245D (recombinant, desminopathy-linked mutant) (UniProt P17661 1-470, E245D)
desmin E245D (recombinant, desminopathy-linked mutant), sequence (P17661 whole entry E245D): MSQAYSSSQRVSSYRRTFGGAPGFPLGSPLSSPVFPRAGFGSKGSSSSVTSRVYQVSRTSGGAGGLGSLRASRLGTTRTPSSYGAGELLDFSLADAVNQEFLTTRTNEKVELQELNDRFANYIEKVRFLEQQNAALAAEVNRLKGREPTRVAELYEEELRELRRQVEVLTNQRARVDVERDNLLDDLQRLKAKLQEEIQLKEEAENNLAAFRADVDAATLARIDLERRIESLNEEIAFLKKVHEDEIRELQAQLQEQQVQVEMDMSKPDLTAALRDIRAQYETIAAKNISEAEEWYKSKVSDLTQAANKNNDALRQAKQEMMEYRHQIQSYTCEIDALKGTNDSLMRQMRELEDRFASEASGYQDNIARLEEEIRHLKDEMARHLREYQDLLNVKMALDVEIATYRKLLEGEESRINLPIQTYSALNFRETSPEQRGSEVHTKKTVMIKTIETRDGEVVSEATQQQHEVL

desmin T453I (recombinant, desminopathy-linked mutant), sequence (P17661 whole entry T453I): as the sequence (P17661 whole entry E245D) above, with D245E, T453I counted along it
wild-type full-length desmin (recombinant), sequence (P17661 whole entry): as the sequence (P17661 whole entry E245D) above, with D245E counted along it

Kd [1]: 16 to 24 nM | Kd [2]: 3 nM | Kd [3]: 5 to 6 nM
B1: His-nebulette modules 1–5 (recombinant) (domain or fragment, UniProt O76041 32-213, looked up)
chain: PVIEDLSMELARKCTELISDIRYKEEFKKSKDKCTFVTDSPMLNHVKNIGAFISEAKYKGTIKADLSNSLYKRMPATIDSVFAGEVTQLQSEVAYKQKHDAAKGFSDYAHMKEPPEVKHAMEVNKHQSNISYRKDVQDTHTYSAELDRPDIKMATQISKIISNAEYKKGQGIMNKEPAVIGR
